Data published in patent US20150344570A1 (published 2015).

B1: GpH7-A5/GpH7-B3 variant D265_13S/GpL16-k0 (antibody, human IgG1, kappa)
heavy 1: not shown
heavy 2: not shown
light: DIVMTQSPLSLPVTPGEPASISCQASESLVHSNRNTYLHWYLQKPGQSPQLLIYKVSNRFSGVPDRFSGSGSGTDFTLKISRVEAEDVGVYYCSQNTHVPPTFGQGTKVEIERTVAAPSVFIFPPSDEQLKSGTASVVCLLNNFYPREAKVQWKVDNALQSGNSQESVTEQDSKDSTYSLSSTLTLSKADYEKHKVYACEVTHQGLSSPVTKSFNRGEC
notes: Heterodimerized anti-glypican-3 IgG1; mutation in one H chain only; also called He Ab
B2: GpH7-A5/GpH7-B3 variant D265_14T/GpL16-k0 (antibody, human IgG1, kappa)
heavy 1: not shown
heavy 2: not shown
light: B1 light
notes: as for B1
B3: GpH7-A5/GpH7-B3 variant D265_15Y/GpL16-k0 (antibody, human IgG1, kappa)
heavy 1: not shown
heavy 2: not shown
light: B1 light
notes: as for B1
B4: GpH7-A5/GpH7-B3 variant D265_16H/GpL16-k0 (antibody, human IgG1, kappa)
heavy 1: not shown
heavy 2: not shown
light: B1 light
notes: as for B1
B5: GpH7-A5/GpH7-B3 variant D265_18N/GpL16-k0 (antibody, human IgG1, kappa)
heavy 1: not shown
heavy 2: not shown
light: B1 light
notes: as for B1
B6: GpH7-A5/GpH7-B3 variant D265_19Q/GpL16-k0 (antibody, human IgG1, kappa)
heavy 1: not shown
heavy 2: not shown
light: B1 light
notes: as for B1
B7: GpH7-A5/GpH7-B3 variant D265_20W/GpL16-k0 (antibody, human IgG1, kappa)
heavy 1: not shown
heavy 2: not shown
light: B1 light
notes: as for B1
B8: GpH7-A5/GpH7-B3 variant E269_01G/GpL16-k0 (antibody, human IgG1, kappa)
heavy 1: not shown
heavy 2: not shown
light: B1 light
notes: as for B1
B9: GpH7-A5/GpH7-B3 variant G236_16H/GpL16-k0 (antibody, human IgG1, kappa)
heavy 1: not shown
heavy 2: not shown
light: B1 light
notes: as for B1
B10: GpH7-A5/GpH7-B3 variant G236_19Q/GpL16-k0 (antibody, human IgG1, kappa)
heavy 1: not shown
heavy 2: not shown
light: B1 light
notes: as for B1
B11: GpH7-A5/GpH7-B3 variant G236_20W/GpL16-k0 (antibody, human IgG1, kappa)
heavy 1: not shown
heavy 2: not shown
light: B1 light
notes: Heterodimerized anti-glypican-3 IgG1; mutation in one H chain only; also called He Ab; GpH7-A5/GpH7-B3-03-20W/GpL16-k0
B12: GpH7-A5/GpH7-B3 variant H268_04F/GpL16-k0 (antibody, human IgG1, kappa)
heavy 1: not shown
heavy 2: not shown
light: B1 light
notes: as for B1
B13: GpH7-A5/GpH7-B3 variant H268_06M/GpL16-k0 (antibody, human IgG1, kappa)
heavy 1: not shown
heavy 2: not shown
light: B1 light
notes: as for B1
B14: GpH7-A5/GpH7-B3 variant H268_08L/GpL16-k0 (antibody, human IgG1, kappa)
heavy 1: not shown
heavy 2: not shown
light: B1 light
notes: as for B1
B15: GpH7-A5/GpH7-B3 variant S239_11K/GpL16-k0 (antibody, human IgG1, kappa)
heavy 1: not shown
heavy 2: not shown
light: B1 light
notes: as for B1
B16: GpH7-A5/GpH7-B3 variant S239_12R/GpL16-k0 (antibody, human IgG1, kappa)
heavy 1: not shown
heavy 2: not shown
light: B1 light
notes: as for B1
B17: GpH7-A5/GpH7-B3 variant S239_16H/GpL16-k0 (antibody, human IgG1, kappa)
heavy 1: not shown
heavy 2: not shown
light: B1 light
notes: as for B1

target: T1, FcγRIIa H (human, UniProt P12318 34-217); assay: SPR; He/Con for FcγRIIa H divided by He/Con for FcγRIIb
T1 construct: extracellular domain; also called FcgRIIa H; 2aH; not shown: His tag attached to the C terminus
T1 sequence (looked up): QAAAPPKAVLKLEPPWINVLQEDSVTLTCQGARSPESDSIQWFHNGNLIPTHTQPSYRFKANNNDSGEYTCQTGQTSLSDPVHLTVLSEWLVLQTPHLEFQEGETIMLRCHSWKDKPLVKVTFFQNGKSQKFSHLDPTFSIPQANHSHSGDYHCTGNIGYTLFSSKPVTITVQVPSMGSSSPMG

Binder	He_2aH/2b (IIaH/IIb)
B1	1.75 ratio
B2	1.5 ratio
B3	6.07 ratio
B4	1.27 ratio
B5	2.01 ratio
B6	1.43 ratio
B7	2.86 ratio
B8	1.39 ratio
B9	3.51 ratio
B10	1.91 ratio
B11	2.52 ratio
B12	1.24 ratio
B13	1.29 ratio
B14	1.25 ratio
B15	1.94 ratio
B16	1.46 ratio
B17	1.2 ratio

target: T1, FcγRIIa H; assay: SPR (Biacore), antibody captured on antigen peptide chip, FcγR as analyte; relative binding activity
Procedure: (§1) The heterodimerized antibodies He Abs in which one of the H chains was introduced with an alteration were assayed for their binding activities to each activating FcγR and inhibitory FcγR according to the method described in Example 4. […] The activating FcγRs in FIGS. 26, 27, 28, and 29 are FcγRIa, FcγRIIa (R), FcγRIIa (H), and FcγRIIIa, respectively.
(§2) Analysis of interaction between objective antibody and the FcγR was carried out using Biacore T100 (GE Healthcare). HBS-EP+ (GE Healthcare) was used as the running buffer, and the measurement temperature was set to 25° C. Chips produced by immobilizing the antigen peptide by the amine coupling method to a Series S Sencor Chip CM5 (GE Healthcare), or alternatively, chips produced by allowing preliminarily biotinylated antigen peptides to interact with and immobilize onto a Series S Sensor Chip SA (certified) (GE Healthcare) were used. Antibodies of interest were captured onto an antigen peptide-immobilized chip, and allowed to interact to each FcγR diluted with running buffer. To regenerate and repeatedly use the chip, the antibodies captured on the chip were washed off by reacting 10 mM glycine-HCl, pH 1.5.

Binder	He/Con_2aH
B1	19.8 % of GpH7-A5/GpH7-B3/GpL16-k0 (=100)
B2	24.1 % of GpH7-A5/GpH7-B3/GpL16-k0 (=100)
B3	3.7 % of GpH7-A5/GpH7-B3/GpL16-k0 (=100)
B4	48.6 % of GpH7-A5/GpH7-B3/GpL16-k0 (=100)
B5	12.4 % of GpH7-A5/GpH7-B3/GpL16-k0 (=100)
B6	47.7 % of GpH7-A5/GpH7-B3/GpL16-k0 (=100)
B7	3.2 % of GpH7-A5/GpH7-B3/GpL16-k0 (=100)
B8	71.5 % of GpH7-A5/GpH7-B3/GpL16-k0 (=100)
B9	98.2 % of GpH7-A5/GpH7-B3/GpL16-k0 (=100)
B10	89.1 % of GpH7-A5/GpH7-B3/GpL16-k0 (=100)
B11	147 % of GpH7-A5/GpH7-B3/GpL16-k0 (=100)
B12	111 % of GpH7-A5/GpH7-B3/GpL16-k0 (=100)
B13	84.8 % of GpH7-A5/GpH7-B3/GpL16-k0 (=100)
B14	85 % of GpH7-A5/GpH7-B3/GpL16-k0 (=100)
B15	48.1 % of GpH7-A5/GpH7-B3/GpL16-k0 (=100)
B16	57.1 % of GpH7-A5/GpH7-B3/GpL16-k0 (=100)
B17	59.4 % of GpH7-A5/GpH7-B3/GpL16-k0 (=100)

target: T2, FcγRIIb (human, UniProt P31994 43-217); assay: as above
T2 construct: extracellular domain; also called FcgRIIb; 2b; not shown: His tag attached to the C terminus
T2 sequence (looked up): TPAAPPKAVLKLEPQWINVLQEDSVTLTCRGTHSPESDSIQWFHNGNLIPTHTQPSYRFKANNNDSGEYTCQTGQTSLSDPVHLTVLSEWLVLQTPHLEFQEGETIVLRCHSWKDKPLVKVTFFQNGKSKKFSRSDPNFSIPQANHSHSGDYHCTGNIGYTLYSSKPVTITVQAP
Procedure: as §1, §2

Binder	He/Con_2b
B1	11.3 % of GpH7-A5/GpH7-B3/GpL16-k0 (=100)
B2	16 % of GpH7-A5/GpH7-B3/GpL16-k0 (=100)
B3	0.6 % of GpH7-A5/GpH7-B3/GpL16-k0 (=100)
B4	38.3 % of GpH7-A5/GpH7-B3/GpL16-k0 (=100)
B5	6.1 % of GpH7-A5/GpH7-B3/GpL16-k0 (=100)
B6	33.4 % of GpH7-A5/GpH7-B3/GpL16-k0 (=100)
B7	1.1 % of GpH7-A5/GpH7-B3/GpL16-k0 (=100)
B8	51.5 % of GpH7-A5/GpH7-B3/GpL16-k0 (=100)
B9	27.9 % of GpH7-A5/GpH7-B3/GpL16-k0 (=100)
B10	46.6 % of GpH7-A5/GpH7-B3/GpL16-k0 (=100)
B11	58.2 % of GpH7-A5/GpH7-B3/GpL16-k0 (=100)
B12	89.6 % of GpH7-A5/GpH7-B3/GpL16-k0 (=100)
B13	65.7 % of GpH7-A5/GpH7-B3/GpL16-k0 (=100)
B14	67.8 % of GpH7-A5/GpH7-B3/GpL16-k0 (=100)
B15	24.7 % of GpH7-A5/GpH7-B3/GpL16-k0 (=100)
B16	39.1 % of GpH7-A5/GpH7-B3/GpL16-k0 (=100)
B17	49.4 % of GpH7-A5/GpH7-B3/GpL16-k0 (=100)
